Here are results for one molecule from article PMC10069166 (Heliyon, 2023).

The assay addresses SARS-CoV-2 Spike protein (RBD, His & Avi tag) (SARS-CoV-2, wild type, UniProt P0DTC2). Put plainly: BLI.

B1: 80R antibody (antibody, V domains shown)
VH: EVQLVQSGGGVVQPGKSLRLSCAASGFAFSSYAMHWVRQAPGKGLEWVAVISYDGSNKYYADSVKGRFTISRDNSKNTLYLQMNSLRAEDTAVYYCARDRSYYLDYWGQGTLVTVSS
VL: TTLTQSPATLSLSPGERATLSCRASQSVRSNLAWYQQKPGQAPRPLIYDASTRATGIPDRFSGSGSGTDFTLTISRLEPEDFAVYYCQQRSNWPPTFGQGTKVEVK
In the case of B1, the binding result was “no binding (tested: 20 nM and 10 nM)”.
